In IntAct's records for PubMed 23700447:

B1: Membrane protein (Human SARS coronavirus), P59596 (parent)
chain: MADNGTITVEELKQLLEQWNLVIGFLFLAWIMLLQFAYSNRNRFLYIIKLVFLWLLWPVTLACFVLAAVYRINWVTGGIAIAMACIVGLMWLSYFVASFRLFARTRSMWSFNPETNILLNVPLRGTIVTRPLMESELVIGAVIIRGHLRMAGHSLGRCDIKDLPKEITVATSRTLSYYKLGASQRVGTDSGFAAYNRYRIGNYKLNTDHAGSNDNIALLVQ

Variants of: B1
Details: with ncap_sars N

Variant	effect of a mutation on the interaction
L218A;L219A	with no effect
